Reference: the supplement of paper PMC9112550, “Optimization of the antimicrobial peptide Bac7 by deep mutational scanning” (BMC Biology, 2022)

Tested on: Escherichia coli TOP10
Test: shrunken log2 fold change of peptide-encoding DNA abundance (4.5 h post-induction vs induction); higher = less antimicrobial activity (less host growth inhibition)
Settings: time post-induction: 4.5 h; library: site-saturation at positions 5, 18, 19, 20
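Also: peptides expressed intracellularly from a pBAD plasmid library in pooled LB shake-flask culture, induced with 0.3% L-arabinose, DNA abundance read by NGS, three biological replicates, DESeq2 with apeglm shrinkage.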

Sequence	shrunken log2 fold change
RRIRLRPPRLPRPRPRPCQFPRP	-0.0181
RRIRCRPPRLPRPRPRPMRSPRP	0.211
RRIRGRPPRLPRPRPRPWPRPRP	0.37
RRIRLRPPRLPRPRPRPNGNPRP	-0.218
RRIRTRPPRLPRPRPRPGGWPRP	1.23
RRIRKRPPRLPRPRPRPYHFPRP	-0.031
RRIRGRPPRLPRPRPRPKWCPRP	0.113
RRIRPRPPRLPRPRPRPMWHPRP	-0.208
RRIRGRPPRLPRPRPRPKSMPRP	0.366
RRIRHRPPRLPRPRPRPYWDPRP	-0.849
RRIRWRPPRLPRPRPRPQLCPRP	0.078
RRIRIRPPRLPRPRPRPLKPPRP	-0.296
RRIRTRPPRLPRPRPRPDFGPRP	-0.0474
RRIRYRPPRLPRPRPRPKWKPRP	-0.0135
RRIRTRPPRLPRPRPRPEMIPRP	0.0294
RRIRSRPPRLPRPRPRPWWAPRP	-0.0137
RRIRCRPPRLPRPRPRPDMSPRP	-0.329
RRIRLRPPRLPRPRPRPLQHPRP	0.212
RRIRKRPPRLPRPRPRPDEHPRP	0.0292
RRIRRRPPRLPRPRPRPTGVPRP	0.616
RRIRYRPPRLPRPRPRPMFQPRP	-0.136
RRIRMRPPRLPRPRPRPTPEPRP	0.713
RRIRERPPRLPRPRPRPNSKPRP	-0.863
RRIRTRPPRLPRPRPRPHNEPRP	-0.581
RRIRHRPPRLPRPRPRPTFIPRP	-0.114

Sequence	shrunken log2 fold change
RRIRKRPPRLPRPRPRPRMRPRP	1.06
RRIRERPPRLPRPRPRPVMHPRP	-0.0979
RRIRDRPPRLPRPRPRPHTRPRP	0.013
RRIRVRPPRLPRPRPRPADCPRP	0.0869
RRIRIRPPRLPRPRPRPLKVPRP	-0.29
RRIRLRPPRLPRPRPRPMNNPRP	-0.604
RRIRRRPPRLPRPRPRPARHPRP	0.447
RRIRKRPPRLPRPRPRPDAFPRP	0.00489
RRIRGRPPRLPRPRPRPRRNPRP	0.609
RRIRNRPPRLPRPRPRPDGLPRP	0.038
RRIRSRPPRLPRPRPRPVMNPRP	0.0346
RRIRARPPRLPRPRPRPKLGPRP	0.023
RRIRLRPPRLPRPRPRPCFMPRP	-0.311
RRIRWRPPRLPRPRPRPQRGPRP	0.115
RRIRNRPPRLPRPRPRPFVEPRP	-0.12
RRIRVRPPRLPRPRPRPGCFPRP	0.15
RRIRDRPPRLPRPRPRPRKMPRP	0.154
RRIRFRPPRLPRPRPRPVRCPRP	0.308
RRIRQRPPRLPRPRPRPDMGPRP	0.0191
RRIRCRPPRLPRPRPRPDWIPRP	-0.159
RRIRTRPPRLPRPRPRPFTDPRP	0.00943
RRIRRRPPRLPRPRPRPRAEPRP	0.572
RRIRGRPPRLPRPRPRPPLVPRP	0.813
RRIRWRPPRLPRPRPRPMQCPRP	0.0434
RRIRERPPRLPRPRPRPVQRPRP	0.0476

Sequence	shrunken log2 fold change
RRIRMRPPRLPRPRPRPSGDPRP	0.839
RRIRPRPPRLPRPRPRPGNGPRP	0.349
RRIRQRPPRLPRPRPRPDKKPRP	-0.0704
RRIRDRPPRLPRPRPRPPQKPRP	-0.0517
RRIRARPPRLPRPRPRPSPCPRP	0.0808
RRIRARPPRLPRPRPRPPCWPRP	0.967
RRIRSRPPRLPRPRPRPSTLPRP	0.658
RRIRHRPPRLPRPRPRPPNMPRP	-0.0135
RRIRPRPPRLPRPRPRPPWNPRP	0.77
RRIRDRPPRLPRPRPRPTIYPRP	0.0468
RRIRFRPPRLPRPRPRPKKMPRP	0.153
RRIRTRPPRLPRPRPRPNCWPRP	0.0359
RRIRWRPPRLPRPRPRPGSYPRP	-0.0955
RRIRWRPPRLPRPRPRPNVSPRP	-0.0556
RRIRCRPPRLPRPRPRPYTFPRP	-0.883
RRIRIRPPRLPRPRPRPVQSPRP	-0.168
RRIRPRPPRLPRPRPRPPEQPRP	0.206
RRIRMRPPRLPRPRPRPQKNPRP	0.628
RRIRTRPPRLPRPRPRPQHGPRP	-0.187
RRIRARPPRLPRPRPRPPHHPRP	0.675
RRIRVRPPRLPRPRPRPCDYPRP	-0.845
RRIRDRPPRLPRPRPRPQFSPRP	0.0361
RRIRTRPPRLPRPRPRPVEPPRP	0.00744
RRIRRRPPRLPRPRPRPAFYPRP	0.654
RRIRHRPPRLPRPRPRPPYAPRP	-0.00375

Sequence	shrunken log2 fold change
RRIRQRPPRLPRPRPRPWYYPRP	0.0179
RRIRFRPPRLPRPRPRPRKLPRP	0.134
RRIRCRPPRLPRPRPRPVEIPRP	-0.296
RRIRQRPPRLPRPRPRPNQPPRP	-0.0757
RRIRVRPPRLPRPRPRPRYVPRP	-0.218
RRIRGRPPRLPRPRPRPGPSPRP	1.05
RRIRMRPPRLPRPRPRPHIGPRP	-0.00118
RRIRGRPPRLPRPRPRPLRGPRP	1.29
RRIRARPPRLPRPRPRPVPAPRP	0.814
RRIRDRPPRLPRPRPRPHRAPRP	-0.0299
RRIRHRPPRLPRPRPRPLIFPRP	-0.38
RRIRKRPPRLPRPRPRPIDSPRP	0.229
RRIRIRPPRLPRPRPRPYFTPRP	-0.702
RRIRSRPPRLPRPRPRPEESPRP	-0.048
RRIRGRPPRLPRPRPRPKGQPRP	0.184
RRIRFRPPRLPRPRPRPSGHPRP	-0.212
RRIRCRPPRLPRPRPRPDWHPRP	-0.358
RRIRIRPPRLPRPRPRPNPEPRP	-0.0503
RRIRWRPPRLPRPRPRPCREPRP	-0.189
RRIRKRPPRLPRPRPRPSWWPRP	0.138
RRIRHRPPRLPRPRPRPIMHPRP	-0.375
RRIRIRPPRLPRPRPRPYYPPRP	-1.36
RRIRWRPPRLPRPRPRPELHPRP	0.308
RRIRWRPPRLPRPRPRPHQMPRP	-0.34
RRIRFRPPRLPRPRPRPAVCPRP	0.925

Sequence	shrunken log2 fold change
RRIRMRPPRLPRPRPRPNQGPRP	-0.0312
RRIRSRPPRLPRPRPRPESMPRP	0.151
RRIRPRPPRLPRPRPRPSPWPRP	0.0349
RRIRPRPPRLPRPRPRPLIFPRP	-0.411
RRIRSRPPRLPRPRPRPLSVPRP	-0.0334
RRIRGRPPRLPRPRPRPSYSPRP	-0.0047
RRIRSRPPRLPRPRPRPRMRPRP	0.91
RRIRCRPPRLPRPRPRPEYIPRP	-0.144
RRIRERPPRLPRPRPRPEQFPRP	-0.0286
RRIRCRPPRLPRPRPRPYRSPRP	0.00395
RRIRKRPPRLPRPRPRPVTQPRP	0.169
RRIRERPPRLPRPRPRPYSAPRP	-0.269
RRIRLRPPRLPRPRPRPNITPRP	-0.327
RRIRPRPPRLPRPRPRPEGCPRP	0.17
RRIRVRPPRLPRPRPRPSCCPRP	-0.133
RRIRFRPPRLPRPRPRPMGIPRP	-0.23
RRIRARPPRLPRPRPRPDIQPRP	-0.149
RRIRLRPPRLPRPRPRPKHGPRP	-0.0363
RRIRHRPPRLPRPRPRPEPRPRP	0.137
RRIRIRPPRLPRPRPRPDYEPRP	-0.0916
RRIRDRPPRLPRPRPRPNTWPRP	0.23
RRIRWRPPRLPRPRPRPDVQPRP	0.0431
RRIRIRPPRLPRPRPRPDFRPRP	-0.371
RRIRMRPPRLPRPRPRPAPIPRP	0.618
RRIRKRPPRLPRPRPRPCQKPRP	-0.0405
